This note sets out measurements from PMC7565984, “A Phosphorylation-Induced Switch in the Nuclear Localization Sequence of the Intrinsically Disordered NUPR1 Hampers Binding to Importin” (Biomolecules, 2020).

[ ]: non-standard residue; d: D form. pT = C[C@@H](OP(=O)(O)O)[C@H](N)C(=O)O

Experiment [1] concerns the target T1, human importin α3 (intact, with the IBB domain) (human, UniProt O00629 1-521).
T1 construct: human importin α3 (KPNA4), intact protein with the IBB domain; codon-optimized synthetic DNA in the vector pHTP1; also called Impα3; KPNA4; source: E. coli BL21 (DE3), purified (as for ΔImpα3)
T1 sequence (looked up): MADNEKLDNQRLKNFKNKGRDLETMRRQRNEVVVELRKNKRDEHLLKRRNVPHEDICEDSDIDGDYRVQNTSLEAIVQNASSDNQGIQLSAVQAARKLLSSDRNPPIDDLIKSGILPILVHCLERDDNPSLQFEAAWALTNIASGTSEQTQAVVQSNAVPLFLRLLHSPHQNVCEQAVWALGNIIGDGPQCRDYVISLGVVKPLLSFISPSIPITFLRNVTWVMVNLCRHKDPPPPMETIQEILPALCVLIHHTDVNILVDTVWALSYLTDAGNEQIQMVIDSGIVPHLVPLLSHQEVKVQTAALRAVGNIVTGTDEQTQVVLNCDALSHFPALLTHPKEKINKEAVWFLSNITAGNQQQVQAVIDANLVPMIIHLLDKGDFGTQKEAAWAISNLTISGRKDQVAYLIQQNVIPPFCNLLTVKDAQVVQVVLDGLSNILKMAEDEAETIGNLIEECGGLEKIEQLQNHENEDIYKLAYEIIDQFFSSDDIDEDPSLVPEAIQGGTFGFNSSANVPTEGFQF
Nature of the experiment: ITC; Impα3 or ΔImpα3 (10–20 μM) in the cell, NLS-NUPR1 peptide (150–300 μM) in the syringe; Tris 50 mM, pH 8; 298 K; single ligand binding site (1:1) model, n gives the fraction of binding-competent protein. Particulars: both partners purified.

Experiment [2] deals with T2, truncated importin α3 without the IBB domain (residues 64-521) (human, UniProt O00629 64-521).
T2 construct: human importin α3 (KPNA4) without the IBB domain, residues 64-521; also called ΔImpα3; ΔImportin
T2 sequence (looked up): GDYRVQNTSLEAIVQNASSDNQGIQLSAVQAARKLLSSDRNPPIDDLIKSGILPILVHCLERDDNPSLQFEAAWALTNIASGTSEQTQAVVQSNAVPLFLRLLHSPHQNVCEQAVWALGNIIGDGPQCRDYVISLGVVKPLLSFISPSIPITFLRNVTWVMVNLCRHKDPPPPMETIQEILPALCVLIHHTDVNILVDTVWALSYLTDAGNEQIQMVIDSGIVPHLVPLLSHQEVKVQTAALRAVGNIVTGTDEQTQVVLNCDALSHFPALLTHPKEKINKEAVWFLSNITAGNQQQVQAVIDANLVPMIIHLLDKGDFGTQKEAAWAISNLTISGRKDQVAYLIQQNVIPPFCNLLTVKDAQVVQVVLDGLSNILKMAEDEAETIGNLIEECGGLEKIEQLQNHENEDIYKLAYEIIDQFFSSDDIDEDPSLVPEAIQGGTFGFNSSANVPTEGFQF
The description is as above. The conditions noted are these: both partners purified.

B1: NLS-NUPR1 peptide K65AT68EK69A (peptide)
peptide: Ac-YTNRPSPGGHERALVEALQNSE-NH2
notes: tyrosine introduced at the N terminus for absorbance measurements; not a residue of NUPR1; also called K65AT68EK69A peptide; triple mutant; source: synthetic peptide (NZYtech, purity 95%)
Regarding B1, the dH in experiment [1] was -16.3 kcal/mol; in experiment [2], -28.5 kcal/mol. This molecule displayed a Kd in experiment [2] of 24 µM.

B2: NLS-NUPR1 peptide K65AT68E (peptide)
peptide: Ac-YTNRPSPGGHERALVEKLQNSE-NH2
notes: tyrosine introduced at the N terminus for absorbance measurements; not a residue of NUPR1; also called K65AT68E peptide; source: synthetic peptide (NZYtech, purity 95%)
In experiment [1], B2 registered a Kd of 21 µM and a dH of -7.8 kcal/mol. In experiment [2], the Kd came to 14 µM and the dH was -17.9 kcal/mol.

B3: NLS-NUPR1 peptide K65A (peptide)
peptide: Ac-YTNRPSPGGHERALVTKLQNSE-NH2
notes: tyrosine introduced at the N terminus for absorbance measurements; not a residue of NUPR1; also called K65A peptide; Lys65Ala; source: synthetic peptide (NZYtech, purity 95%)
As to B3, in experiment [1], binding was put at a Kd of 3.9 µM, the dH was -2.8 kcal/mol and the “stoichiometry N” value is 1.4. In experiment [2], the Kd is 2.7 µM, the dH is -10.2 kcal/mol and the “stoichiometry N” value turned out to be 1.4.

B4: NLS-NUPR1 peptide T68EK69A (peptide)
peptide: Ac-YTNRPSPGGHERKLVEALQNSE-NH2
notes: tyrosine introduced at the N terminus for absorbance measurements; not a residue of NUPR1; also called T68EK69A peptide; source: synthetic peptide (NZYtech, purity 95%)
Turning to B4, the Kd in experiment [1] and in experiment [2] was 17 µM in each case. For the same molecule, the dH in experiment [1] was -7.5 kcal/mol; in experiment [2], -21.2 kcal/mol.

B5: NLS-NUPR1 peptide phosphorylated at Thr68 (peptide)
peptide: Ac-YTNRPSPGGHERKLV[pT]KLQNSE-NH2
SMILES: CC(=O)N[C@@H](Cc1ccc(O)cc1)C(=O)N[C@H](C(=O)N[C@@H](CC(N)=O)C(=O)N[C@@H](CCCNC(=N)N)C(=O)N1CCC[C@H]1C(=O)N[C@@H](CO)C(=O)N1CCC[C@H]1C(=O)NCC(=O)NCC(=O)N[C@@H](Cc1c[nH]cn1)C(=O)N[C@@H](CCC(=O)O)C(=O)N[C@@H](CCCNC(=N)N)C(=O)N[C@@H](CCCCN)C(=O)N[C@@H](CC(C)C)C(=O)N[C@H](C(=O)N[C@H](C(=O)N[C@@H](CCCCN)C(=O)N[C@@H](CC(C)C)C(=O)N[C@@H](CCC(N)=O)C(=O)N[C@@H](CC(N)=O)C(=O)N[C@@H](CO)C(=O)N[C@@H](CCC(=O)O)C(N)=O)[C@@H](C)OP(=O)(O)O)C(C)C)[C@@H](C)O
notes: tyrosine introduced at the N terminus for absorbance measurements; not a residue of NUPR1; Thr68 is printed as pT (phospho-threonine); also called pT68; pT68 peptide; source: synthetic peptide (NZYtech, purity 95%)
B5: the figures for the Kd in experiment [1] and in experiment [2] were 27 µM and 29 µM, respectively. Also, the dH in experiment [1] was -14.8 kcal/mol; in experiment [2], -28.2 kcal/mol.
